In patent US20250154494A1, “Microfluidic Co-Encapsulation Device and System and Methods for Identifying T-Cell Receptor Ligands” (JANSSEN BIOTECH, INC., priority 2021, published 2025):

Key:
Assay type in all cases: cell-based
[1] = test system: T-cells expressing cognate TCR
Jurkat cells = assay: Droplet co-culture of B and T cells, CD69 surface expression by flow cytometry; conditions: EDTA without added calcium
Description: One day prior to encapsulation, BOLETH cells were cultured in the presence of cognate or negative control peptides at a final concentration of 1 μM. Cells were collected the next day, centrifuged at 300 g for 5 min, then resuspended in B-cell medium at a final concentration of 1.4×10^7 cells/ml. These were further supplemented with same peptide and with or without EDTA. TCR-expressing Jurkat cells were centrifuged at 300 g and resuspended in B-cell medium at a concentration of 4×10^7 cells/ml. These were then further supplemented with respective concentrations of calcium. BOLETH, Jurkat, and detergent-containing fractions were connected to the microfluidic chip as described. Pressures were applied using an OB1 MK3+ and the droplet emulsion was collected into a 1.5 ml reaction tube containing oil.
Droplets were incubated at 37° C. in a 5% CO2 humidified incubator. Following overnight incubation, droplet emulsions were disrupted by adding two volumes of Pico-Break 1 (SPHERE FLUIDICS). Tubes were quickly inverted several times and centrifuged for 15 s at 300 rpm to facilitate separation of the cell-containing fraction. […] Tubes were centrifuged for 5 min at 300 g and cell pellets were subsequently resuspended in 100 μl of FACS buffer and were analyzed via flow cytometry. […]

[2] = test system: Jurkat and SKW3 reporter cells; assay: Co-culture of TT2-expressing P10-NBV reporter Jurkat and SKW3 cells with cognate minigene-transduced B cells overexpressing Flag-tagged surface receptors; conditions: overexpression on minigene-transduced B cells
Excerpt: For the purpose of testing the different Flag-tagged surface receptors, InFusion-based cloning (TAKARA) was used to replace the mTagBFP2 reporter with the human codon optimized coding sequence of each candidate surface receptor, N-terminally or C-terminally tagged with a flexible 6× Flag to face the extracellular space. Specifically, the coding region of CD40, CD58, CD80, CD83, CD86, OX40L and 4-1BBL were cloned and tested.
Co-culture experiments were done using round bottom 96 well plates. P10-NBV Jurkat and SKW3 reporter cells and B cells are seeded 1 to 1 ratio into each well. Next day the cells are spun down and stained for Flow cytometry.

BOLETH cells = assay: Labeling of BOLETH cells with scFv-containing supernatant of transfected HEK293 cells, flow cytometry; conditions: for signal strength in tandem (T2A) scFv constructs relative to single scFv constructs: αCD19-HA and αCD20-V5 in one expression construct
Excerpt: Current generation T cell reporter systems consists of a cis-regulatory element comprising multiple copies of a synthetic promoter sequence (‘NBV’). […] The scFv is derived from a monoclonal αCD19-antibody (clone B43) binding to the B cell-specific transmembrane protein CD19, which is commonly used in monoclonal antibody-mediated immunotherapy (Uckun et al., 1988, Blood, 71(1):13-29). It is tagged with six HA epitope tags at its C-terminus, which facilitates its detection by flow cytometry. To optimize the current reporter and B cell labeling strategy, the potential of additional scFvs was tested. In particular, an αCD20-scFv derived from a human monoclonal antibody was evaluated that recognizes an epitope encompassing the membrane-proximal small-loop on the CD20 molecule, known as ofatumumab (clone 2F2) (Teeling et al., 2004, Blood, 104(6):1793-800). In order to test its functionality, scFv constructs were assembled in both the VH-VL and VL-VH configuration. The heavy and light chain domains were separated by a flexible polypeptide linker (G4S)3. To confirm that ofatumumab, as an scFv tagged with four copies of the V5 label, a small epitope-tag found on P and V proteins of the paramyxovirus, can efficiently label BOLETH cells and be detected by flow cytometry, the coding region was inserted into a CMV expression plasmid. HEK293 cells were transfected with the construct using TurboFect. As a negative control, HEK293 cells were transfected with a sfGFP-containing construct. Medium was exchanged 24 hours post-transfection. The scFv-containing supernatant (SN) was collected 72 hours post-transfection and was used to label BOLETH cells. Using fluorescent dye-conjugated antibodies recognizing the tagged scFvs, the amount of B cell bound scFv was measured by flow cytometry (FIG. 8A).
For optimizing scFv reporter constructs, constructs containing combinations of B43 and 2F2 tagged with either HA or V5 were cloned in pTwist CMV WPRE Neo BetaGlobin. For testing, HEK cells were transiently transfected with the plasmids using TurboFect (Fermentas). […]

TCR signaling = assay: Co-culture of Jurkat reporter cells carrying synthetic promoters with peptide-loaded B cells (GFP / HA reporter)
Description: Sleeping beauty transposon reporter constructs were transfected together with transposases into T cells, 5 to 1 ratio, using the Neon transfection system following the manufacturer's protocol. The voltages used for Jurkat cells were 1350V/[…]/3 pulse, and for SKW-3 cells 1500V, […] and 1 pulse were used as settings. 48-72 hours after transfection, the cells were selected using […] Blasticidin for Jurkat and […] Blasticidin for SKW-3 cells.
Co-culture experiments were performed using round-bottom 96-well plates. P10-NBV Jurkat and SKW-3 reporter cells and B cells were seeded at a 1:1 ratio into each well. For peptide co-culture experiments, either cognate peptide or mismatched peptide is added to each well and incubated for 16 hours. For minigene-based co-culture experiments, minigene-transduced B cells harboring either the cognate of mismatch minigenes were used. Next day the cells are spun down and stained for Flow cytometry.

BT1 construct: minigene expression construct with first transmembrane domain of Bcap31 fused to the minigene N-terminus; SEQ ID NO:116 (DNA AVATFLYAEVFVVLLLCIPFI)
T-cell activation with 400 AA minigene [1]: strong T-cell activation even with a 400 AA minigene
stability of T-cell activation over time [1]: stable T-cell activation over time
strength of minigene-induced T-cell activation [1]: strong T-cell activation, similar to the positive control
presentation of the TetX_400_1 minigene relative to 2B construct ([1]; TT2 TCR): did not improve the presentation

O=C(O)CN(CCN(CC(=O)O)CC(=O)O)CC(=O)O [EDTA]
T-cell activation in presence of EDTA (chelation of calcium from the media) (Jurkat cells): T-cell activation is inhibited

4-1BBL: Flag-tagged surface receptor overexpressed on minigene-transduced B cells; SEQ ID NO:85
minigene-based T cell activation [2]: potentiates minigene-based T cell activation

B1: αCD19-HA: secreted scFv derived from monoclonal αCD19 antibody clone B43, six HA epitope tags at C-terminus; SEQ ID NO:39 (protein)
scFv: EVQLVQSGAEVKKPGSSVKVSCKASGYAFSSYWMNWVRQAPGQGLEWMGQIWPGDSDTNYAQKFQGRVTITADESTSTAYMELSSLRSEDTAVYYCARRETTTVGRYYYAMDYWGQGTTVTVSSGGGGSGGGGSGGGGSDIQLTQSPSFLSASVGDRVTITCKASQSVDYSGDSYLNWYQQKPGKAPKLLIYDASNLVSGVPSRFSGSGSGTEFTLTISSLQPEDFATYYCQQSTENPWTFGGGTKLEIK
modifications: 6x HA tag
HA MFI, HA-tagged αCD19 scFv compared to HA-tagged αCD20 scFv (BOLETH cells; HEK supernatant staining of B cells): higher MFIs
signal strength in tandem (T2A) scFv constructs relative to single scFv constructs (BOLETH cells): remains unchanged
signal strength in tandem (T2A) scFv constructs relative to single scFv constructs (BOLETH cells; listed as αCD19 scFv): retains similar binding capacity

B2: OX40L: Flag-tagged surface receptor overexpressed on minigene-transduced B cells; SEQ ID NO:84 (protein)
chain: ERVQPLEENVGNAARPRFERNKLLLVASVIQGLGLLLCFTYICLHFSALQVSHRYPRIQSIKVQFTEYKKEKGFILTSQKEDEIMKVQNNSVIINCDGFYLISLKGYFSQEVNISLHYQKDEEPLFQLKKVRSVNSLMVASLTYKDKVYLNVTTDNTSLDDFHVNGGELILIHQNPGEFCVLGSGAGGSGSGAGGSGDYKDDDDKGAGSGDYKDDDDKGAGSDYKDDDDKGGAGSDYKDDDDKGSGDYKDDDDKGAGSGDYKDDDDKGSGAGGSS
modifications: Flag tag
minigene-based T cell activation [2]: potentiates minigene-based T cell activation

B3: NBVtf: synthetic transcription factor, fusion of NFAT N-terminus, Bob1 octamer-binding domain and VP16 transactivation domain; SEQ ID NO:76 (protein)
chain: MPSTSFPVPSKFPLGPAAAVFGRGETLGPAPRAGGTMKSAEEEHYGYASSNVSPALPLPTAHSTLPAPCHNLQTSTPGIIPPADHPSGYGAALDGGPAGYFLSSGHTRPDGAPALESPRIEITSCLGLYHNNNQFFHDVEVEDVLPSSKRSPSTATLSLPSLEAYRDPSCLSPASSLSSRSCNSEASSYESNYSYPYASPQTSPWQSPCVSPKTTDPEEGFPRGLGACTLLGSPRHSPSTSPRASVTEESWLGARSSRPASPCNKRKYSLNGRQPPYSPHHSPTPSPHGSPRVSVTDDSWLGNTTQYTSSAIVAAINALTTDSSLDLGDGVPVKSRKTTLEQPPSVALKVEPVGEDLGSPPPPADFAPEDYSSFQHIRKGGFCDQYLAVPQHPYQWAKPKPLSPTSYMSPTLPALDWQLPGSTSGSGKPGSGEGSTKGMLWQKPTAPEQAPAPARPYQGVRVKEPVKELLRRKRGHASSGAAPAPTAVVLPHQPLATYTTVGPSCLDMEGSVSAVTEEAALCAGWLSQPGGGGSGGGGSGGGGSTAPPTDVSLGDELHLDGEDVAMAHADALDDFDLDMLGDGDSPGPGFTPHDSAPYGALDMADFEFEQMFTDALGIDEYGG
reporter gene expression (TCR signaling; Jurkat-P10NBV-TT2 cells, BOLETH cells loaded with 0.01 μM cognate peptide): further improves reporter gene expression
reporter gene expression (TCR signaling; Jurkat-P10NBV-TT11 cells, BOLETH cells loaded with 0.1 μM cognate peptide): further improves reporter gene expression

B4: P10 promoter: synthetic TCR responsive promoter, SEQ ID NO:60 (nucleic acid)
DNA: AGAGATGGGCTAACAGGTATGAGCATGGGAAAAGCATGTTTCAAGAATTTGAGATGTATTTCCCAGAAAAGGAACATGATGAAAATGGTCAGAAAAGGCATTCTTAGGGTCCCCAGATGTCTGCCTTTTCCATTGATTTTCTTTCCTGGTTAATTGCGAGGCTTGCCTCAAGGTGGAAAACAGTATCGGTTTCCACTGGATCACTAGGTCACAGGGTTTGCCTTTTTCCAAACCTGCATCTCAATTTTACCTATGATTTGCATTAAATAACTTTGGAAAAATTGAAGTTCTTGAGAAGCCACCGCGCCCGGCCTCCTCTCCTTTTCCAAATTTATACATTTTGATTGGTGGGGAGATTCCATTATAGGGGCTGGAAAACCCCTTTACCATACCATGAATGTAACTGTACTGTTACAAAGTGGAAAATAACAGTTTCCACTTTTCGCAGCTCTTTGAGAGCAGGACTCTATTTTCCAGTCTCTTTATAAGCTTCATTCATAGTGAAGCTAACAGAAGTTTTTCCATGGTTAGATTGTGCACCGGGCTGTTTTTAAATGTAATATGATTTTCCATTTACTTATTTATCTTTGTAGTTTTATGACAAAGAAAATTTTCTGAGTTACTTTTGTATCCCCACCCCCTTAAAGAAAGGAGGAAAAACTGTTTCATACAGAAGGCGTTAATTGCA
GFP and HA reporter gene expression in sleeping beauty constructs (TCR signaling; sleeping beauty constructs): high GFP and HA reporter gene expression
